Experiments:
Assay in all cases: biochemical
Type in all cases: biochemical
[1] = molecular target: 266 human kinases (Homo sapiens, UniProt P04049); conditions: c-RAF(h); 100 μM
Method in brief: (§1)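 Kinase phosphorylates cationic substrate with radiolabelled ATP phosphate; substrate retained on anionic filter membrane; scintillation count; % of 100% activity control.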

[2] = molecular target: 266 human kinases (Homo sapiens, UniProt O15264); conditions: SAPK4(h); 100 μM
Method in brief: as §1

[3] = molecular target: 266 human kinases (Homo sapiens, UniProt Q9Y5S2); conditions: MRCKβ(h); 100 μM
Method in brief: as §1

[4] = molecular target: 266 human kinases (Homo sapiens, UniProt P57059); conditions: SIK(h); 100 μM
Sequence of 266 human kinases (Homo sapiens, UniProt P57059) (P57059 whole entry): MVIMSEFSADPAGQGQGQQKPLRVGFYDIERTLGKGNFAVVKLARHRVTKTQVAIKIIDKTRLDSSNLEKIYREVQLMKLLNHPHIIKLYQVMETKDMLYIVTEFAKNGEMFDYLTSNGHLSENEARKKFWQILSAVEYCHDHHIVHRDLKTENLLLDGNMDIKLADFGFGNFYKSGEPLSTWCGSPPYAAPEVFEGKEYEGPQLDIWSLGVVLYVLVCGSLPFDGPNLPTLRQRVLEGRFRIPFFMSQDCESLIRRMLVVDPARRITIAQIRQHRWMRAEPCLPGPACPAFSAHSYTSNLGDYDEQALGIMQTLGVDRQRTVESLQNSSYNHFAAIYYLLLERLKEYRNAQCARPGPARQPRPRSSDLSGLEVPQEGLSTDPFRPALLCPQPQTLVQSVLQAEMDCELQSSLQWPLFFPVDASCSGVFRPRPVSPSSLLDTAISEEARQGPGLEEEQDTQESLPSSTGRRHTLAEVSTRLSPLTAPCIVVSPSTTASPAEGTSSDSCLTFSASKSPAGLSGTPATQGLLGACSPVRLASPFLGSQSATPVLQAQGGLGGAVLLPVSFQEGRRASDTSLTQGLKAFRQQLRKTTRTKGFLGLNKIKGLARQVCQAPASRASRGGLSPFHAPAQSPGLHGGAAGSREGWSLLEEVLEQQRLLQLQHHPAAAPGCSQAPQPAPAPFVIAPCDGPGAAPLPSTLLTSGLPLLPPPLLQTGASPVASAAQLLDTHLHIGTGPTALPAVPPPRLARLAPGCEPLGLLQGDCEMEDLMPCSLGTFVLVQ
Method in brief: as §1

[5] = molecular target: 266 human kinases (Homo sapiens, UniProt P00519, H396P); conditions: Abl(H8396P)(h); 100 μM
Method in brief: as §1

[6] = molecular target: 266 human kinases (Homo sapiens, UniProt P50750); conditions: CDK9/cyclin T1(h); 100 μM
Method in brief: as §1

[7] = molecular target: 266 human kinases (Homo sapiens, UniProt P35916); conditions: Flt4(h); 100 μM
Method in brief: as §1

[8] = molecular target: 266 human kinases (Homo sapiens, UniProt O14965); conditions: Aurora-A(h); 100 μM
Sequence of 266 human kinases (Homo sapiens, UniProt O14965) (O14965 whole entry): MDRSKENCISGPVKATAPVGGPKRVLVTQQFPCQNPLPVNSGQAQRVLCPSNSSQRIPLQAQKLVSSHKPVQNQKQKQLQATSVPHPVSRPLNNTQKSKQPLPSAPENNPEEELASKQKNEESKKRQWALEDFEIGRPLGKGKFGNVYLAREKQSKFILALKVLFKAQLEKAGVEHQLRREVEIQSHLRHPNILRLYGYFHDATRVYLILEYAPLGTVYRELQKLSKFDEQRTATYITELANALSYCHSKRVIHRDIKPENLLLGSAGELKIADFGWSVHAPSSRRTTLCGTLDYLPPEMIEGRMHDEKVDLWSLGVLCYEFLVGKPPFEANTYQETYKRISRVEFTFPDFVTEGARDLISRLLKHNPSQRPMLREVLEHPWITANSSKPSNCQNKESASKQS
Method in brief: as §1

[9] = molecular target: T1, 266 human kinases (Homo sapiens, UniProt P51817); conditions: PrKX(h); 100 μM
T1 sequence (P51817 1-358): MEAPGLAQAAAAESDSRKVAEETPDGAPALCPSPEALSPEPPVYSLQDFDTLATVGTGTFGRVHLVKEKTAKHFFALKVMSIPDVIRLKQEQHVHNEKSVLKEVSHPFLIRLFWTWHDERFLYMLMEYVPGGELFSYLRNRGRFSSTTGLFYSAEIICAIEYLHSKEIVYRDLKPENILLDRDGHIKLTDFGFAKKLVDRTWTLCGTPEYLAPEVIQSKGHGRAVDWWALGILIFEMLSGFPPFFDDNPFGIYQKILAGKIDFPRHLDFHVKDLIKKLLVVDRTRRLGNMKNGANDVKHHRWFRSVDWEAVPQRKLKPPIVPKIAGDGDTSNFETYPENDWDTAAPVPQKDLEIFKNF
Method in brief: as §1

[10] = molecular target: 266 human kinases (Homo sapiens, UniProt P06493); conditions: CDK1/cyclinB(h); 100 μM
Sequence of 266 human kinases (Homo sapiens, UniProt P06493) (P06493 whole entry): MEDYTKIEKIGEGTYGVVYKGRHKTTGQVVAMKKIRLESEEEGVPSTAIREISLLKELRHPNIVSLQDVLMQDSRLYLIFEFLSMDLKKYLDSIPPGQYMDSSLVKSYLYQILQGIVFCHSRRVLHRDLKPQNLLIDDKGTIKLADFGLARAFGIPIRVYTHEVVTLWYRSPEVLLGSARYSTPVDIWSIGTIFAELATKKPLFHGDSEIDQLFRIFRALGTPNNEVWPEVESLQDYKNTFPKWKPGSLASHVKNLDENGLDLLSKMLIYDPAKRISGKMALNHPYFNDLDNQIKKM
Method in brief: as §1

[11] = molecular target: T2, 266 human kinases (Homo sapiens, UniProt O00141); conditions: SGK(h); 100 μM
T2 sequence (O00141 1-431): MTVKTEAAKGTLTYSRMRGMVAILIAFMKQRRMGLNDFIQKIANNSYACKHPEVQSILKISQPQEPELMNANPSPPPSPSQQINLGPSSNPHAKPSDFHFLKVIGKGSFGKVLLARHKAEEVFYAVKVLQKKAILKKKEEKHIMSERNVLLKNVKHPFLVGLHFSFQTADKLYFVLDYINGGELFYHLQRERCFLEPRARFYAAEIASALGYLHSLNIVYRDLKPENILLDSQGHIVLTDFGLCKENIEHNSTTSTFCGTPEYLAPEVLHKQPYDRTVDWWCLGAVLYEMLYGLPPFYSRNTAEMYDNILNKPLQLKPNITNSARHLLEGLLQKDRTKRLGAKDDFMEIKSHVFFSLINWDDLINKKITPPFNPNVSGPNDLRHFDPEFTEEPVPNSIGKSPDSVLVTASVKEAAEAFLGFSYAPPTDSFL
Method in brief: as §1

[12] = molecular target: 266 human kinases (Homo sapiens, UniProt Q8N4C8); conditions: MINK(h); 100 μM
Sequence of 266 human kinases (Homo sapiens, UniProt Q8N4C8) (Q8N4C8 whole entry): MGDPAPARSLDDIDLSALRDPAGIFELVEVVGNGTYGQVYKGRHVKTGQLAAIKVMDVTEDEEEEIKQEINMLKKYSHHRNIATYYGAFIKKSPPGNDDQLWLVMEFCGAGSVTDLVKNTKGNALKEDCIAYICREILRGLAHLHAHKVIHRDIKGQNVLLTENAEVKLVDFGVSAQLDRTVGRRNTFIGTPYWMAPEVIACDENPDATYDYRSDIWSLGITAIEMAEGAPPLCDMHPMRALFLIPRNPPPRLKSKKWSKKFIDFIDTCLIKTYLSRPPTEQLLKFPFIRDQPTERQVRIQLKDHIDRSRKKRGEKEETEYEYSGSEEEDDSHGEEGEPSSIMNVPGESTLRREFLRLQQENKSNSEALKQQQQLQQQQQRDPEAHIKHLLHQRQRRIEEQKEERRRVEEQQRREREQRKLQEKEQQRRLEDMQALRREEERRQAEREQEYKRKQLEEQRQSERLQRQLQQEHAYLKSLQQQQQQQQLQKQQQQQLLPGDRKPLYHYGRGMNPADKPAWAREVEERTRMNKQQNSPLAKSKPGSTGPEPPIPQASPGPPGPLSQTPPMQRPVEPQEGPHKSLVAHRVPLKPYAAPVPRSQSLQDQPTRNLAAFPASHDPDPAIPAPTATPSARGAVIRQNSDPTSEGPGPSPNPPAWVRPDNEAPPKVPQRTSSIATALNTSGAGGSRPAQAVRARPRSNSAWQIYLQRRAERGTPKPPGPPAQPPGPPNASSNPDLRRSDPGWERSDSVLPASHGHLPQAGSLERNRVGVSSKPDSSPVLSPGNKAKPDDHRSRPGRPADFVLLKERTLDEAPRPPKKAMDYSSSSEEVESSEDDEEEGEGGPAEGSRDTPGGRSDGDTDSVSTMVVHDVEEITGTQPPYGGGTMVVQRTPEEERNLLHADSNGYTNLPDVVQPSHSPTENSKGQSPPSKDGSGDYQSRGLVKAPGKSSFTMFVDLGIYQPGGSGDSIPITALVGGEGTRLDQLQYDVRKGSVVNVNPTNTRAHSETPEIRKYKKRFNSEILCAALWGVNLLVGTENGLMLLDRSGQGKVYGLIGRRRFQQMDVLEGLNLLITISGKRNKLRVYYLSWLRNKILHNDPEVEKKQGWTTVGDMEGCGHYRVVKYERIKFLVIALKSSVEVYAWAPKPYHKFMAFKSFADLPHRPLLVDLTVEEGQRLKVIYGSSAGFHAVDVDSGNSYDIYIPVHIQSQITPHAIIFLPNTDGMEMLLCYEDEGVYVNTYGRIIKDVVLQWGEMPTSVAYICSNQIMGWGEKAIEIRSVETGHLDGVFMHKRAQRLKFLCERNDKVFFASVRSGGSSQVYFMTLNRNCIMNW
Method in brief: as §1

[13] = molecular target: 266 human kinases (Homo sapiens, UniProt P28482); conditions: MAPK2(h); 100 μM
Sequence of 266 human kinases (Homo sapiens, UniProt P28482) (P28482 whole entry): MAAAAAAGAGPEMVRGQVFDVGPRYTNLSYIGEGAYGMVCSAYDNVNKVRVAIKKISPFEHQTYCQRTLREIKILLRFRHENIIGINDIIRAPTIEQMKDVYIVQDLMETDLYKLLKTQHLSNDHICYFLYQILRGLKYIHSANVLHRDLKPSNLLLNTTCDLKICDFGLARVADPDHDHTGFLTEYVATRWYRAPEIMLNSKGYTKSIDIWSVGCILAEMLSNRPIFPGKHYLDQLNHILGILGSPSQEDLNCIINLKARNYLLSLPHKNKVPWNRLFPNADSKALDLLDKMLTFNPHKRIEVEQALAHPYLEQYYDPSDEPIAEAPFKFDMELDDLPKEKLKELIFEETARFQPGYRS
Method in brief: as §1

[14] = molecular target: 266 human kinases (Homo sapiens, UniProt P00519, Y253F); conditions: Abl(Y253F)(h); 100 μM
Method in brief: as §1

[15] = molecular target: 266 human kinases (Homo sapiens, UniProt P24941); conditions: 100 μM
Method in brief: as §1

[16] = molecular target: 266 human kinases (Homo sapiens, UniProt Q9HCP0); conditions: CK1γ1(h); 100 μM
Sequence of 266 human kinases (Homo sapiens, UniProt Q9HCP0) (Q9HCP0 whole entry): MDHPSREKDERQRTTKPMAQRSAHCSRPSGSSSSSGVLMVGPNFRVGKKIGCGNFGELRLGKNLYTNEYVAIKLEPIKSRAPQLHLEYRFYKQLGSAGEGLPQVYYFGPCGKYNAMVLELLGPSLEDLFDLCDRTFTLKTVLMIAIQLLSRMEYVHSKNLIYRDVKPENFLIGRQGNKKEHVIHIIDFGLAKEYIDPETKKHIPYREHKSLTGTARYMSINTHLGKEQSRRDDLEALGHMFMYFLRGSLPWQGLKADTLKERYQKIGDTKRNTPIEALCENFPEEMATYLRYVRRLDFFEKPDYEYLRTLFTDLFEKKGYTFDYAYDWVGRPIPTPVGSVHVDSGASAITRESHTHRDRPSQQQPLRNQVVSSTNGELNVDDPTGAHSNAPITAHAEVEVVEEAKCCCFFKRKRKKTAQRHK
Method in brief: as §1

[17] = molecular target: 266 human kinases (Homo sapiens, UniProt Q9Y6M4); conditions: CK1γ3(h); 100 μM
Sequence of 266 human kinases (Homo sapiens, UniProt Q9Y6M4) (Q9Y6M4 whole entry): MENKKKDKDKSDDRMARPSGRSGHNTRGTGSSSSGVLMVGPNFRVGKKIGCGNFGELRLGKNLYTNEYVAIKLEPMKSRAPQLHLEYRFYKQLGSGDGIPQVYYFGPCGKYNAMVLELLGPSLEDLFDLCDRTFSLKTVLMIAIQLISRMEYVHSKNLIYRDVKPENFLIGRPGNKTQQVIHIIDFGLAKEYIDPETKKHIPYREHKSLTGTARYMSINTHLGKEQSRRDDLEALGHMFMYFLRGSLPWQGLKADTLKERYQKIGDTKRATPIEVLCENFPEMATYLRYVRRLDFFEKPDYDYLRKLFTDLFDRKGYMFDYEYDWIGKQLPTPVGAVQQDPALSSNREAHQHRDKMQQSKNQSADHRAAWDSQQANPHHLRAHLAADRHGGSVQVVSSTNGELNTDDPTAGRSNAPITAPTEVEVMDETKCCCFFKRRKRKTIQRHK
Method in brief: as §1

[18] = molecular target: 266 human kinases (Homo sapiens, UniProt P49760); conditions: CLK2(h); 100 μM
Method in brief: as §1

[19] = molecular target: 266 human kinases (Homo sapiens, UniProt O43318); conditions: TAK1(h); 100 μM
Method in brief: as §1

[20] = molecular target: 266 human kinases (Homo sapiens, UniProt P53350); conditions: Plk1(h); 100 μM
Sequence of 266 human kinases (Homo sapiens, UniProt P53350) (P53350 whole entry): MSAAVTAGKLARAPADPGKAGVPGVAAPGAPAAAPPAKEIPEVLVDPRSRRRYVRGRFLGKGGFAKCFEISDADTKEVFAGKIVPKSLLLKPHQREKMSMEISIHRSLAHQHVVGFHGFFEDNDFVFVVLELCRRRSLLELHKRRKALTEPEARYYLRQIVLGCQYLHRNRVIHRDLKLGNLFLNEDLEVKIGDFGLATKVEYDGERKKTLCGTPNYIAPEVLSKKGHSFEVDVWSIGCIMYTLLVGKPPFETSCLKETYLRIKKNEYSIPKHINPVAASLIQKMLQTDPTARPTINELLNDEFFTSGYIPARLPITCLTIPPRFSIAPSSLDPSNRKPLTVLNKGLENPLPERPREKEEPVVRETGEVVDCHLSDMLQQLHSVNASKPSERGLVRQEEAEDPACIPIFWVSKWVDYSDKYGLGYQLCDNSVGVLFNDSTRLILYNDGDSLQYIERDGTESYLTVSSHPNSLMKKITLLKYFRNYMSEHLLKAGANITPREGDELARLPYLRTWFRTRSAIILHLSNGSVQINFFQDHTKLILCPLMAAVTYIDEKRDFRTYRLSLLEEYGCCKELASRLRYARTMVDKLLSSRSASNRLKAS
Method in brief: as §1

[21] = molecular target: 266 human kinases (Homo sapiens, UniProt P34947); conditions: GRK5(h); 100 μM
Method in brief: as §1

Sequence of 266 human kinases (Homo sapiens, UniProt O15264) (O15264 whole entry): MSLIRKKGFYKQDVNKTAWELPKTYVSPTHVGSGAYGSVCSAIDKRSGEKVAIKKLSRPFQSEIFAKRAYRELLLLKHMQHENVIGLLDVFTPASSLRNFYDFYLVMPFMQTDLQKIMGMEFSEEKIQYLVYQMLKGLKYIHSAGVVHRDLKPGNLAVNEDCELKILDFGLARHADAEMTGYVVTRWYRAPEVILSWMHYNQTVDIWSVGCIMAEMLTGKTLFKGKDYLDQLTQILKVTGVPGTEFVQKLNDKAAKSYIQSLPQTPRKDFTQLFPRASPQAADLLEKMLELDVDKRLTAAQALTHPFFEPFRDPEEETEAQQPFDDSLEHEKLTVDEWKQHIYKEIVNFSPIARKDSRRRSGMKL

## HRRIKAWLKKIKALARQLGVAA (mammal) [MMI-0500]
[1]
  % activity: 19%
[2]
  % activity: 48%
[3]
  % activity: −10%
[4]
  % activity: 40%
[5]
  % activity: 51%
[6]
  % activity: 6%
[7]
  % activity: 73%
[8]
  % activity: 110%
[9]
  % activity: 57%
[10]
  % activity: 57%
[11]
  % activity: 2%
[12]
  % activity: 5%
[13]
  % activity: 60%
[14]
  % activity: 29%
[15]; CDK2/cyclinA(h)
  % activity: 87%
[15]; CDK2/cyclinE(h)
  % activity: 19%

## YARAAARQARAKALNRQLGVA (mammal) [MMI-0200]
[16]
  % activity: 98%
[17]
  % activity: 96%
[18]
  % activity: 97%
[19]
  % activity: 124%
[20]
  % activity: 128%
[21]
  % activity: 135%
